Ten sequences from patent US20180346912 can be followed below.

In data set [1] the test system is T1, VEGF165 (human), P15692-4.
T1 sequence: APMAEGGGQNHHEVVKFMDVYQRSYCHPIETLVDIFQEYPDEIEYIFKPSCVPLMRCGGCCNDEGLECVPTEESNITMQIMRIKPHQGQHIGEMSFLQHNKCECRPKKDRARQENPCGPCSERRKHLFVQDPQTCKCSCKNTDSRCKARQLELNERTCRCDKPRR
The experiment in a line: competition. The following applies: n = Ds unnatural base in DNA, phosphate buffer pH 7.4, 0.005% NP-40, 37 C.

Data set [2] deals with T2, IFN-γ (human) (UniProt P01579).
T2 sequence: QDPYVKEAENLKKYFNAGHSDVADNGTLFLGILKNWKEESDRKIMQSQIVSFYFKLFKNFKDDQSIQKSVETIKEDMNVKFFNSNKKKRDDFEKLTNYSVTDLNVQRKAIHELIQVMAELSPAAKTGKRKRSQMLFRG
The data set can be described thus: competition. Conditions: PBS, 0.005% NP-40, 37 C.

Data set [3] addresses T2, IFN-γ (human). The experiment in a line: SPR. Conditions: biotinylated DNA on SA chip, 1x PBS + 50 mM NaCl, 0.05% NP-40, 25 C.
[4] abbreviates: EMSA competition vs 32P-Aptamer 47 (=1.00).
The mark [5] stands for this setting: n = Ds unnatural base in DNA, EMSA competition vs 32P-Aptamer 49 (=1.00).

Regarding “GCGGTAAGCCGCGTCCGAAGGGGCNTGCGGCGANCCCGAATGGGTCCGCCGCGAAGCG [Aptamer 58GCmh (VEGF)]”, in data set [1] (setting [4]), the binding signal turned out to be 1.59.
“CGGTAAACTGCGTCCGAAGGGGCNTGCAGTGANCCCGAATGGGTCCG [Aptamer 47 (VEGF)]” registered a binding signal in data set [1] (reference) of 1.
As to “CCCGCCCGGGTCGCCTANTGGCGTAGGTNTGGGCTAGGCNGCTGGCGGGCGCGAAGCG [Aptamer 58GC (IFN-γ)]”, the binding signal with IFN-γ (human) [2] (setting [5]) stood at 0.24.
In data set [1] (setting [4]), “GCGGTAAACTGCGTCCGAAGGGGCNTGCAGTGANCCCGAATGGGTCCGCCGCGAAGCG [Aptamer 58mh (VEGF)]” had a binding signal of 1.58.
On to “GCGGTAAACTGCGTCCGAAGGGGCNTGCAGTGANCCCGAATGGGTCCGC [Aptamer 49 (VEGF)]”, for which the binding signal in data set [1] (setting [4]) was determined as 1.53.
As a reminder, the Kd is the constant that tells how readily two partners part at equilibrium. Regarding “TCCACTCGGGTCATTTANTAATGTAGGTNTGGGCTAGGCNGCTAGTGGA [Aptamer 49 (IFN-γ)]”, the equilibrium dissociation constant (Kd) in the data set with IFN-γ (human) [3] (n = Ds, 7-(2-thienyl)-3H-imidazo[4,5-b]pyridin-3-yl unnatural base in DNA) amounted to 0.046 nM. The sequence further gave a binding signal with IFN-γ (human) [2] (n = Ds, 7-(2-thienyl)-3H-imidazo[4,5-b]pyridin-3-yl unnatural base in DNA, reference, EMSA competition) of 1.
In the case of “TCCACTCGGGTCATTTANTAATGTAGGTNTGGGCTAGGCNGCTAGTGGACGCGAAGCG [Aptamer 58 (IFN-γ)]”, the Kd with IFN-γ (human) [3] (n = Ds unnatural base in DNA) amounted to 0.038 nM. Besides, the binding signal with IFN-γ (human) [2] (setting [5]) is 1.29.
In the same order, the values of “CCCGCCCGGGTCCGCGAAGCGGTAGGTNTGGGCTAGGCNGCTGGCGGGCGCGAAGCG [Aptamer 57GCmh (IFN-γ)]” are 0.033 nM and 1.53.
As for “GCGGTAAGCCGCGTCCGAAGGGGCNTGCGGCGANCCCGAATGGGTCCGC [Aptamer 49GC (VEGF)]”, the binding signal in data set [1] (setting [4]) stood at 1.5.
With “TCCACTCGGGTCCGCGAAGCGGTAGGTNTGGGCTAGGCNGCTAGTGGACGCGAAGCG [Aptamer 57mh (IFN-γ)]”, the binding signal with IFN-γ (human) [2] (setting [5]) is 1.4.
